Assay results: US20070196354A1, “Method of treating diabetes by inhibiting degradation of at least one of crebl1, atf6, and hnf-4 alpha by htra” (priority 2003, published 2007)

Target: T1, CREBL1 (Homo sapiens, UniProt Q99941)
T1 construct: expressed in transfected cells; host or cells: HEK293T
T1 sequence (Q99941 1-703): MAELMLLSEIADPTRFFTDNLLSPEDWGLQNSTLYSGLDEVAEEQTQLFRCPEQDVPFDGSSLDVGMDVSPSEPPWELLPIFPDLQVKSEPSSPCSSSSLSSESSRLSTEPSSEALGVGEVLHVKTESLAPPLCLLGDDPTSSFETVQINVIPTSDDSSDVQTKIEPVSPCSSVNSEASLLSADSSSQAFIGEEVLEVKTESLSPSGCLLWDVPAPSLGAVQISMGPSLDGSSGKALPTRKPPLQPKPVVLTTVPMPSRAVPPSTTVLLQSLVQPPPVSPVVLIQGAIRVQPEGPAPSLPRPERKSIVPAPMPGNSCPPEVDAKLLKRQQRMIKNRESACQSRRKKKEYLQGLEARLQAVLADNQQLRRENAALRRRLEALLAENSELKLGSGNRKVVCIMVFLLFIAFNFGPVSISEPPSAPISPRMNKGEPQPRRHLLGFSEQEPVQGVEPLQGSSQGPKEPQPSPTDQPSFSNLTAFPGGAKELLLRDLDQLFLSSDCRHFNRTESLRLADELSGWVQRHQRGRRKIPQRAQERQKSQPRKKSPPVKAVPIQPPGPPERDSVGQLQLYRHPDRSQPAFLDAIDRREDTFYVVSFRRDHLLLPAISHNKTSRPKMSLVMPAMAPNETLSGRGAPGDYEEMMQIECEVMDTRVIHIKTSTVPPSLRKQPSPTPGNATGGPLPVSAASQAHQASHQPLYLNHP
Test: In vitro protease assay, CREBL1 captured on resin
Format: biochemical
Conditions: 50 μg/ml, 37° C., overnight (O/N), anti-c-Myc detection
Description: CREBL1 and ATF6 which were captured on the resin were used in the experiments in order to eliminate the influence of proteinaceous impurities contained in the soluble fractions prepared from the cells obtained by transfecting an expression plasmid of CREBL1 or ATF6. Three hundreds μl of each soluble fraction of CREBL1 and ATF6 was dispensed to six tubes (Nos. 1 to 6), followed by adding 20 μl of protein G sepharose 4 FF (Amersham) of 50% slurry that had been subjected to blocking with BSA, to each of tubes, subjected to overturned mixing at 4° C. for 1 hour, and then subjected to centrifugation (10,000 rpm, 10 sec, 4° C.) to collect the supernatant, and thus the pre-treatment (pre-clean) was performed. The resultant supernatant was mixed with 1.7 μl (2 μg) of anti-Myc antibody (Invitrogen), subjected to overturned mixing at 4° C. for 3 hours, followed by adding 20 μl of protein G sepharose 4 FF that had been subjected to blocking with BSA, and then subjected to overturned mixing at 4° C. overnight. Thus, CREBL1 and ATF6 were respectively captured on protein G sepharose 4 FF. […]

B1: mature HtrA2: SEQ ID NO: 4; mature protein generated from HtrA2 precursor by cleavage of N-terminal 133 residues, has protease activity (protein, listed as Homo sapiens)
chain: MAVPSPPPASPRSQYNFIADVVEKTAPAVVYIEILDRHPFLGREVPISNGSGFVVAADGLIVTNAHVVADRRRVRVRLLSGDTYEAVVTAVDPVADIATLRIQTKEPLPTLPLGRSADVRQGEFVVAMGSPFALQNTITSGIVSSAQRPARDLGLPQTNVEYIQTDAAIDFGNSGGPLVNLDGEVIGVNTMKVTAGISFAIPSDRLREFLHRGEKKNSSSGISGSQRRYIGVMMLTLSPSILAELQLREPSFPDVQHGVLIHKVILGSPAHRAGLRPGDVILAIGEQMVQNAEDVYEAVRTQSQLAVQIRRGRETLTLYVTPEVTE
modifications: mature HtrA2
In the case of B1, the “degradation of CREBL1 (band by western blotting)” value is reported as “the band of CREBL1 was reduced significantly”.
